Data taken from the DeepSol protein solubility set.

Experiment: soluble on expression in E. coli; label from the status in PepcDB or PDB records

Soluble on expression in E. coli, not soluble:
MSLDANVRTVKWNGIPLHEASSAIVKEETNGDFYLTVRYPITDSGIYQLIKEDMLIKSPVPVLGAQLFRIKKPIENDDSMDITAYHVSDDIMKRSITPVSVVGQGCAMALSQMVQNAKTGLGDFSFTSDIMDSRTFNTTETETLYSVLMDGKHSIVGTWEGELVRDNFALSIKRSRGADRGVVITTHKNLKSYQRTKNSQGVVTRIHARSTFKPDGAEDEVTLRVSVDSPLINSYPYINEKEYENNNAETVEDLRKWAEAKFTNEGIDKVSDAIEIEAYELDGQVVNLGDTVNLKSRKHSADLYKKAIAYEFNALTEEYISITFDDKPGVGGSGVSSGLSNVADAILVASATAQDVAVQRAVKNANAAFDAEFGKTKTKINDDIEIAKAKVESFKSELSNRMDNQLLPLATEAKNLASQAQADLTRKEIELRAELNREGHHHHHH
MAYKFLSEDWIKAYAEEWNKNEKLMNDLKNFSASIKYYVEGKENDAVELIIEKGKAVSAGKADPNKRYDFELWASLENWKKLATGEMGPRAAMLTKRLKFKGSMITAMKYMGAFEESLKMMGRVPTVWDV
MKLEVTPKAQQWFKEETGVQPETGIRFFGKIYGKTPVHDGFSIAMSVEAPDEPMIKENLDGITYFIEETDDWFFKGYDLIVDYDEKNDEPRYQFEANQEDLTK
MGSDKIHHHHHHMNNINEKSTYHHGDLRETLLVVATEMLQENGIKEVSLRKLASRVGVSRTAPYHHFKDKNALLCGMAEKGFEQLHQINKCGYEDGELSIREHFYRFIHDYIQFAHNNPDLYELMFGRTIWKDKSSTQELRDSAYPCFQFQVAMTQEWQKKGLFNVDDNALRVSQVLWGTVHGIAKLFIDGIYTDNSKIDEICDYAVSMFLSNSKK
MGSDKIHHHHHHMGRLKTVKLVLLHTSFNLFYQFFYKVFGPKKGRITLATMRSGQLNDNLAALEQGLKTANVKPVTVFCYHYDRTLAGKVGFLLASIKALYVIARADVFVIDDYFFPLYAIHKHDDNQVVQLWHAIGSLKKFGLSLPNADQSVMKPHTNYDWVLINAKSDQPAYLDAMAINQDHVIATGSPMVDSLLNRQPQQPRLAARRILYSPTYRQGVQGKQQVMGYVNNMIAACQQLTGPWELYISLHPYLKLSAMTLPSNVHIFQDAERVKTLMPTIDLFITDYSSLSLTFSYFERPIILYTPDYDDYMQTSGFYVDYYQYLQAPHFSKAARVVDFINQEVDHMDLSYVHELKQKTFPHQDGHNTERVVQFVEKLAGGEH

Soluble on expression in E. coli, soluble:
MAHHHHHHMQKLRADWTKHFDSEKASMTAFRDYDFERRVNDMRRLQNAVDHFDHAVRQGMMAMKEIASAYEAVGQAFTELTLTNNNPVPGPGEAEEPNPYPTEADVQYMSQPNAGAAAADYAASVASTRMPDEANSQVRRLAKTFAEEARRINEGPPFQSYNAGIHRDVHNRLLPVLEHLKSINEYRHKHIEALERYNKYKAEVEKVEKHYTKKGKPFCDSKGHKKYTEKRDEAWKEYITRRDKFNKTFGMLMEVNDHAAAQIIHRYLVLNHEYLQQLVASMDRVLPAMAEVYPLNNEYNSLQNTLILEAVANAKTPFADHSKIRSKQADSDKSDGAGDERHEDVQEAMDAHYEAQQSTLTSMSSDGGSNLASGSRLEDSVSYDAHVNPSTALESMEQPPDPEQDDV
MQTISDNAANAIQEIFGRSKALIGMIHCPAFPGAPRYRNASMDAIYDACMRDAERLIEGGMHGLIVENHGDVPFSKPDDIGPETSAFMSVVTDRIVRTAGVPVGINVLANAPIPAFAIAKAGGAKFIRVNQWANAYVANEGFMEGRAAEAMRYRSLLRAEHIKVFADSHVKHGAHAITADRSIDELTRDLAFFDADGVIATGQRTGNSASLEEIEEIGAATHLPLLVGSGVNEGNIVEILKRTSGVIVASSLKEGGVWWNPVELARVRSFVAAARPGLEALEHHHHHH
MQAYSNPGYSSFPSPTGLEPSCKSCGAHFANTARKQTCLDCKKNFCMTCSSQVGNGPRLCLLCQRFRATAFQREELMKMKVKDLRDYLSLHDISTEMCREKEELVLLVLGQQPVISQEDR
